Assay: yeast display, Sf9 membrane polyspecificity reagent, FACS + sequencing; frameworks hold sequencing errors
Summary of the method: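 Galactose induction of a Saccharomyces cerevisiae BJ5465 synthetic nanobody display library ran 36–48 hours. The cells were then stained for 1 hour at 4 °C with 10% biotinylated, detergent-solubilized Sf9 membrane reagent, pulled down on streptavidin microbeads and FACS-sorted into low and high (top ~1%) gates on expression and reagent-binding fluorescence. Labels for polyreactivity follow the gate of origin.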

Row | Sequence | polyreactivity (PSR sort gate)
1 | QVQLVESGGGLVQAGGSLRLSCAASGRTFPIYAMGWYRQAPGKERELVAAITSYRRGTTYYADSVKGRFTISRDNAKNTVYLQMNSLKPEDTAVYYCTARTLRGGEYKYWGQGTPVTVSS | high polyreactivity
2 | QVQLVESGGGLVQAGGSRRIICAASGGTFYYYAMGWYRQAPGKERELVAAITWSGASTRYADSVKGRFTISRDNAKNTVYLQMNSLKPEDTAVYYCAARRVRPLVTYGYWGQGTQLTVSS | high polyreactivity
3 | QVQLVESGGGLVNAGGSLRLSCAASGRTFRNYAMGWYRQAPGKERELVAANSSGGSTNYADSVKGRFTISRDNAKNTVYLQMNSLKPEDTAVYFCAARQRAYYGPGFDYWGQGTQVTVSS | low polyreactivity
4 | QVQLVESGGGLVQAGGSLRLSCAASGRIFGFNARGWYRQAPGKERELVAGITDSSGRTNYADSVKGRFTISRDNAKNTVYLQMNSLKPEDTAVYYCARRRFGQYTERYYWGQGTQVTVSS | low polyreactivity
5 | QVQLEESGGGLVQAGGSLRLICAASGRIFDYYTMGWYRQAPGKERELVAAISSSGGSTYYADSVKGRFTISRDNAKNTVYLQMNSLKPEDPAVYYCNASVINEMNYWGQGTQVTVSS | low polyreactivity
6 | QVQLVESGGGLVQAGGSLRLSCAASGRTFNVYAMGWYRQAPGKERELVAAISIGGRTNYADSVKGRFTISRDNAKNTVYLQMNSLKPEDTAVYYCAADTRRKYGGMYYWGQGTQVTVSS | high polyreactivity
7 | QVQLVESGGGLVQAGGSLRLSCAASGLIFADYTMGWYRQAPGKERELVAVITDGDSTYYADSVKGRFTISLDNAKNTVYLQMNTLKPEDTAVSYCAAESAGSFLDYYWAYGYWGQGTQVTVSS | low polyreactivity
8 | QVQLVESGGGLVQAGGSLRLSCAASGSTFLLYDMGWYRQAPGKERELVAAITWSGGSTYYADSVKGRFTISRDNAKNTVYLQMNSLKPEDTEVYYCAADSLGDRYYYWGQGTQVTVSS | low polyreactivity
9 | QVQLVESGGGLVQAGGSLRLSCAASGRIFIHNAMGWYRQAPGKERELVAAISSRGSRTSYADSVKGRFTISRDNAKNTVYLQMNSLKPEDTSVYYCNAAPIAKYDYWGQGTQVTVSS | high polyreactivity
10 | QVQLVESGGGLVQAGGSLRIICAASGSIFVEYAMGWYRQAPGKERELVAAITYRGGSTYYADSVKGRFTISRDNAENTVYLQMNSLKPEDTAVYYCAAAVYYWGTSAYEYWGQGTQVTVSS | low polyreactivity
11 | QDQLLESVGGLVQAGGSLRLSCAATGSTFHRSVMGSYRQAPGKEREMVAVINSTGGSTYYADSVKGRFTISLDNAKNTVYLQMNSVKPEDSAVYYFAADLYSIEYETAYRGYEYWGQGTQVTVSS | low polyreactivity
12 | QVQLVESGGGLVQAGGSLRLSCAASGSIFGWYVMGWYRQAPGKERELVAAISSGGSTNYADSVKGRFTISRDNAKNTVYLQMNSLKPEDTAVYYCAKRFRRTPYRNTYKPYDRYYWGQGTQVTVSS | high polyreactivity
13 | QVQLVESGGGLVQAGGSLRLSCAASGRIFYNYAMGWSRQAPGKERELVAAISGSGGSTYYADSVKGRFTISRDNAKNTVYLQMNSLKPEDTAVYYCSTSGPQYYSRNFDYWGQGTQVTVSS | low polyreactivity
14 | QVQLVESGGALVQAGGSLRLSCAASGSIFRYNAMGWYRQAPGKEREFVAIISYSGVRTYYADSVKGRFTISRDNAKNTVYLQMNSLKPADTAVYYCAADFKQKGHRTRTTYWGQGTQVTVSS | high polyreactivity
15 | QVQLVESGGGLVQAGGSLRLSCAASGIIFRAYAMGWYRPAPGKERELVAAISWSGGSTYYADSVKGRFTISRDNAKNTVYLQMNSLKPEDTAVYYCAAESLVYDFDYWGQGTQVTVSS | high polyreactivity
16 | QVQLVESGGGLVQAGGSLRLSCAASGIILHYYAMGSYRQAPGKERELVAAISARGGRTYYADSVKGRFTISRDNAKNTVYLQMNSLKPEDTAVYYCARYLRRSSPSPGYGYWGQGTQVTVSS | high polyreactivity
17 | QVQLVESVGGLVQAGGSLRLSCAASGSTIDGYAMGWYRQAPGKEREFVAAISFSSASTYYADSVKGRFTISRDNAKNTVYLQMNSLKPEDTAVYYCNADFFDSGGSIEYDSWGQGTQVTVSS | low polyreactivity

Source: the nanobody polyreactivity screen of Harvey et al. (2022)
